First the molecules themselves.
B1: 抗体4 (antibody, V domains shown)
VH: EVQLVESGGGLVKPGGSLKLSCAASGFTFSDYGMSWIRQTPEKRLEWVASISSGGTYTYYPDSVKGRFTISRDSAKNTLYLQMNSLRSEDTAMYYCARRDGYYSVEYWGQGTSVTVSS
VL: QIVLTQSPAIMSASPGGEVTMTCSASSSVSFMHWYQQKSGTSPKRWIFDTSKLASGVPTRFSGSGSGTSYSLTISSMEAEDAATYYCQQWTTNPPTFGGGTKLEIK
notes: Mouse hybridoma monoclonal antibody purified on Protein A; also called 鼠源抗NKp30抗体; NKp30 mAb
B2: 抗体2 (antibody, V domains shown)
VH: EVQLQQFGAELVKPGASVKISCKASGYTFTDYNMDWVKQSHGKSLEWIAYINPNYEITTYNQKFKGKATLTVDKSSSTAYMELRSLTSEDTAVYYCARGRGGYDPAMDYWGQGTSVTVSS
VL: SIVMTQTPKFLLVSAGDRVTITCKASQSVSNDVTWSQQKPGQSPKLLIYYASNRYTGVPDRFTGSGYGTDFTFTISTVQAEDLAVYLCQQDNSTPPTFGAGTKLELK
notes: as for B1
B3: 抗体5 (antibody, V domains shown)
VH: VLILKESGGGLVKPGGSLKLSCAASGFAFSSYDMSWVRQTPEKRLEWVATISSGGSYTYYPDSVKGRFTISRDNARNTLYLQMSSLRSEDTALYYCARHFGDHDGYVMDYWGQGTSVIVSS
VL: DIVMTQSPSSLAMSLGQKVTMSCKSSQSLLNSSNQKSNLAWYQQKPGQSPKLLVYFASTRESGVPDRFIGSGSGTDFSLTIRSVQAEDLADYFCQQHYSTPFTFGSGTKLEIK
notes: as for B1
B4: 抗体1 (antibody, V domains shown)
VH: QVQLQQPGAELVKPGASVKLSCKASGYTFTSYWMEWVKLRPGQGFDWIGEINPSNGGTNYNEKFKRKAILTVDKSSSAAYMQLSGLTSEDSAVYYCTIGGDYAWFAYWGQGTLVTVSA
VL: DIKMTQSPSSMYASLGERVTITCKASQDIKSYLSWYQQKPWKSPKTLIFYATSLADGVPSRFSASGSGQDYSLTISSLESDDTATYYCLQHGESPYTFGGGTKLEIK
notes: as for B1
B5: 抗体3 (antibody, V domains shown)
VH: QGQLQQSGAEVMKPGASVKISCKANGHTFGSYWIEWIKQRPGHGLEWIGEILPGSGSKKYNEKFEGKATFTEETSSNTAYMELTSLTSEDSAVYYCSRGGYYGSRFAYWGQGTLVTVSA
VL: DVVLTQTPLSLPVNIGDQASISCKSTKSLLNSDGFTYLDWYLQKPGQSPQLLIYLVSNRFSGVPDRFSGSGSGTDFTLKISRVEAEDLGVYYCFQSNYLPFTFGSGTKLEIK
notes: as for B1
B6: 抗体6 (antibody, V domains shown)
VH: QVQLQQSGAELVRPGVSVKISCKGSGYTFTDYAMHWVKQSHAKSLEWIGIISTYYGDASYNQKFKGKATMTVDKSSSTAYMELARLTSEDSAIYYCARDYDNRYAAMDYWGQGTSVTVSS
VL: DIVMTQAAFSNPVTLGTSASISCRSSKSLLHSNGITYLYWYLQKPGQSPQLLIYQMSNLASGVPDRFSSSGSGTDFTLRISRVEAEDVGVYYCAQNLELPYTFGGGTKLEIK
notes: as for B1

Among the data in patent CN115124620A (SHENGHE CHINA BIO PHARMACY CO LTD, dated 2022) are Kd, koff and kon values, retold here.

The assay deals with T1, 人NKp30-his蛋白(KACTUS;Cat:NKP-HM430) (human, UniProt O14931 19-135).
T1 construct: Bought protein; Molar concentration was calculated with 35 kDa; also called 重组人NKp30-his; 人NKp30蛋白; not shown: his tag
T1 sequence (looked up): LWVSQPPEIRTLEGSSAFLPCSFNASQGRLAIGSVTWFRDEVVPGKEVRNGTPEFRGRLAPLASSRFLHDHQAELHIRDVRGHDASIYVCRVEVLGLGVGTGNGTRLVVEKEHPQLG
In words: BLI (Octet Red96e), antibody captured on sensor, 100 nM human NKp30-his in solution, 1:1 model.
For B1, the Kd – broadly, the concentration at which binding is half-saturated – is 0.846 nM; the koff (commonly the first-order rate constant of dissociation) was 0.000338 s⁻¹; the kon (in general, a measure of how fast the partners come together) was determined as 399000 M⁻¹ s⁻¹.

In the case of B2, binding was put at a Kd of 0.197 nM, the koff is 0.000212 s⁻¹ and the kon was 1.08e+06 M⁻¹ s⁻¹.

B3 came in with a Kd of 0.821 nM, a koff of 0.000552 s⁻¹ and a kon of 673000 M⁻¹ s⁻¹.

In turn, B4 gave a Kd of 0.439 nM, a koff of 0.000708 s⁻¹ and an on-rate (kon) of 1.61e+06 M⁻¹ s⁻¹.

Molecule B5 came in with a Kd of 2.03 nM, a koff of 0.00194 s⁻¹ and a kon of 959000 M⁻¹ s⁻¹.

On to B6, for which the Kd was 5.43 nM, the koff is 0.00585 s⁻¹ and the kon came out at 1.08e+06 M⁻¹ s⁻¹.
